Legend:
[1] = biological target: T1, gastrin-releasing peptide receptor (GRPR) (human, UniProt P30550 1-384); assay: competition with 125I-Bombesin on PC-3 cells, inhibitor 56 to 0.44 nM
T1 construct: whole, on cells; also called GRP receptor; GRP-receptor
Method: (§1) We used IMP333 as a non-specific control. […] A range of 56 to 0.44 nM was used as our inhibitory concentrations.

[2] = biological target: T1, gastrin-releasing peptide receptor …; assay: competition with 125I-BBN on PC-3 cells, repeat experiment, inhibitor 250 to 2 nM
Method: as §1
This experiment was repeated using a commercially available BBN peptide. We increased the amount of inhibitory peptide from 250 to 2 nM to block the ¹²⁵I-BBN from binding to PC-3 cells.

T1 sequence (P30550 whole entry): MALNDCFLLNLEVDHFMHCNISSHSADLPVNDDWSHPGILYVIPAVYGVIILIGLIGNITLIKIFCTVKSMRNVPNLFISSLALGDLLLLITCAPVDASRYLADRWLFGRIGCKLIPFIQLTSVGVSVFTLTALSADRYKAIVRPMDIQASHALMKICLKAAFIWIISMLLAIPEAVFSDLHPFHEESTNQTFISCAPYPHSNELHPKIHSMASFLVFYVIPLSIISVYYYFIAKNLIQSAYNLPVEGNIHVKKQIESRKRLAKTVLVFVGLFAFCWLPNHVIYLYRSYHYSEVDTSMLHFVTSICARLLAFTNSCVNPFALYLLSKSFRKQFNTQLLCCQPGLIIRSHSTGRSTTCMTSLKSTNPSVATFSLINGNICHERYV

IC50 [1]: 21.5 nM | IC50 [2]: 35.9 nM
B1: IMP468 (NOTA-NH-(CH2)7CO-Gln-Trp-Val-Trp-Ala-Val-Gly-His-Leu-Met-NH2) (peptide)
peptide: QWVWAVGHLM
HELM: PEPTIDE1{[O=C(O)CN1CCN(CC(=O)O)CCN(CC(=O)[*:2])CC1].[O=C(CCCCCCCN[*:1])[*:2]].Q.W.V.W.A.V.G.H.L.M.[am]}$$$$V2.0
SMILES: CSCC[C@H](NC(=O)[C@H](CC(C)C)NC(=O)[C@H](Cc1c[nH]cn1)NC(=O)CNC(=O)[C@@H](NC(=O)[C@H](C)NC(=O)[C@H](Cc1c[nH]c2ccccc12)NC(=O)[C@@H](NC(=O)[C@H](Cc1c[nH]c2ccccc12)NC(=O)[C@H](CCC(N)=O)NC(=O)CCCCCCCNC(=O)CN1CCN(CC(=O)O)CCN(CC(=O)O)CC1)C(C)C)C(C)C)C(N)=O
notes: also called NOTA-conjugated bombesin derivative

From patent US20150217006A1 (IMMUNOMEDICS, published 2015)
